Our source for the protein stability index values is the supplement of paper PMC10567573.

To fix the notation:
B1: ZNF263 (parent)
chain: FGGNPRFLSLHRAHLGEEAHKCLE
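Further: lentivirally expressed fusions sorted by FACS into six bins by GFP to DsRed ratio, PSI derived from sequencing read proportions per bin multiplied by bin number.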

This data set covers variants of B1. Kind of data set: protein stability index of a GFP-peptide fusion (GPS, HEK-293T) (PSI 1-6); higher = more stable. The following applies: c terminus: a fixed tail appended.
Turning to FGGNPRFLSLHRAHLGYEAHKCLE [E17Y], the protein stability index came to 1.56.
For FGGNPRFLSLHRAHLGLEAHKCLE [E17L], the protein stability index worked out at 1.25.
For the variant FGGNPRFLSLHRAHLGSEAHKCLE [E17S], the protein stability index is 2.07.
Under FGGNPRFLSLHRAHLGAEAHKCLE [E17A] stands 1.42; under FGGNPRFLSLHRAHLGGEAHKCLE [E17G], 1.3.
Turning to FGGNPRFLSLHRAHLGHEAHKCLE [E17H], the protein stability index was 1.82.
Turning to FGGNPRFLSLHRAHLGIEAHKCLE [E17I], the protein stability index was determined as 1.19.
With FGGNPRFLSLHRAHLGTEAHKCLE [E17T], the protein stability index worked out at 1.73.
Take FGGNPRFLSLHRAHLGDEAHKCLE [E17D]: the protein stability index was determined as 1.36.
Consider FGGNPRFLSLHRAHLGQEAHKCLE [E17Q], for which the protein stability index was 1.85.
Consider FGGNPRFLSLHRAHLGMEAHKCLE [E17M], for which the protein stability index was found to be 2.82.
Take FGGNPRFLSLHRAHLGKEAHKCLE [E17K]: the protein stability index turned out to be 2.5.
In the case of FGGNPRFLSLHRAHLGCEAHKCLE [E17C], the protein stability index came out at 2.37.
Under FGGNPRFLSLHRAHLGWEAHKCLE [E17W] stands 2.12; under FGGNPRFLSLHRAHLGREAHKCLE [E17R], 1.78.
For the variant FGGNPRFLSLHRAHLGPEAHKCLE [E17P], the protein stability index is 1.41.
Under FGGNPRFLSLHRAHLGFEAHKCLE [E17F] stands 2.94.
As for FGGNPRFLSLHRAHLGNEAHKCLE [E17N], the protein stability index is 1.97.
For FGGNPRFLSLHRAHLGEEYHKCLE [A19Y], the protein stability index worked out at 1.57.
As for FGGNPRFLSLHRAHLGEEDHKCLE [A19D], the protein stability index is 1.99.
Take FGGNPRFLSLHRAHLGEETHKCLE [A19T]: the protein stability index was 1.95.
In the case of FGGNPRFLSLHRAHLGEEIHKCLE [A19I], the protein stability index stood at 2.36.
Take FGGNPRFLSLHRAHLGEEVHKCLE [A19V]: the protein stability index amounted to 1.91.
Under FGGNPRFLSLHRAHLGEEGHKCLE [A19G] stands 1.58; under FGGNPRFLSLHRAHLGEEFHKCLE [A19F], 1.44; under FGGNPRFLSLHRAHLGEELHKCLE [A19L], 1.39.
For FGGNPRFLSLHRAHLGEEHHKCLE [A19H], the protein stability index was 1.75.
With FGGNPRFLSLHRAHLGEEWHKCLE [A19W], the protein stability index stood at 2.23.
For the variant FGGNPRFLSLHRAHLGEEKHKCLE [A19K], the protein stability index came out at 1.49.
For the variant FGGNPRFLSLHRAHLGEEPHKCLE [A19P], the protein stability index was 2.08.
For the variant FGGNPRFLSLHRAHLGEEQHKCLE [A19Q], the protein stability index was found to be 1.9.
Regarding FGGNPRFLSLHRAHLGEESHKCLE [A19S], the protein stability index is 2.48.
Under FGGNPRFLSLHRAHLGEENHKCLE [A19N] stands 1.66.
Under FGGNPRFLSLHRAHLGEEMHKCLE [A19M] stands 2.18; under FGGNPRFLSLHRAHLGEEEHKCLE [A19E], 2.14.
Take FGGNPRFLSLHRAHLGEECHKCLE [A19C]: the protein stability index is 2.48.
As for FGGNPRFLSLHRAHLGEERHKCLE [A19R], the protein stability index came to 1.59.
For the variant FGGNPRFLSLHRAHYGEEAHKCLE [L15Y], the protein stability index is 2.58.
In the case of FGGNPRFLSLHRAHLGETAHKCLE [E18T], the protein stability index came out at 1.46.
Under FGGNPRFLSLHRAHLGEDAHKCLE [E18D] stands 1.87; under FGGNPRFLSLHRAHLGEKAHKCLE [E18K], 1.39.
With FGGNPRFLSLHRAHLGEWAHKCLE [E18W], the protein stability index came out at 2.03.
Consider FGGNPRFLSLHRAHLGELAHKCLE [E18L], for which the protein stability index is 2.33.
FGGNPRFLSLHRAHLGEYAHKCLE [E18Y]: the protein stability index amounted to 1.88.
Take FGGNPRFLSLHRAHLGENAHKCLE [E18N]: the protein stability index turned out to be 1.07.
Regarding FGGNPRFLSLHRAHLGECAHKCLE [E18C], the protein stability index turned out to be 2.12.
For FGGNPRFLSLHRAHLGEMAHKCLE [E18M], the protein stability index amounted to 1.75.
For the variant FGGNPRFLSLHRAHLGERAHKCLE [E18R], the protein stability index worked out at 1.62.
Regarding FGGNPRFLSLHRAHLGEGAHKCLE [E18G], the protein stability index stood at 1.61.
In the case of FGGNPRFLSLHRAHLGEIAHKCLE [E18I], the protein stability index turned out to be 2.34.
On to FGGNPRFLSLHRAHLGEQAHKCLE [E18Q], for which the protein stability index came to 1.87.
For FGGNPRFLSLHRAHLGEAAHKCLE [E18A], the protein stability index turned out to be 1.77.
As to FGGNPRFLSLHRAHLGEHAHKCLE [E18H], the protein stability index was 1.47.
For the variant FGGNPRFLSLHRAHLGESAHKCLE [E18S], the protein stability index was found to be 2.34.
FGGNPRFLSLHRAHLGEFAHKCLE [E18F]: the protein stability index worked out at 1.85.
Regarding FGGNPRFLSLHRAHLGEPAHKCLE [E18P], the protein stability index is 2.05.
Consider FGGNPRFLSLHRAHLGEVAHKCLE [E18V], for which the protein stability index was found to be 2.43.
As for FGGNPRFLSLHRAHLGEEAYKCLE [H20Y], the protein stability index worked out at 2.18.
For the variant FGGNPRFLSLHRAHLGEEASKCLE [H20S], the protein stability index was found to be 2.69.
For the variant FGGNPRFLSLHRAHLGEEAFKCLE [H20F], the protein stability index came out at 1.98.
As for FGGNPRFLSLHRAHLGEEANKCLE [H20N], the protein stability index is 1.49.
For FGGNPRFLSLHRAHLGEEAKKCLE [H20K], the protein stability index worked out at 2.56.
For FGGNPRFLSLHRAHLGEEAGKCLE [H20G], the protein stability index is 1.53.
As to FGGNPRFLSLHRAHLGEEADKCLE [H20D], the protein stability index is 2.28.
Under FGGNPRFLSLHRAHLGEEAIKCLE [H20I] stands 1.4.
Turning to FGGNPRFLSLHRAHLGEEAPKCLE [H20P], the protein stability index was 1.83.
In the case of FGGNPRFLSLHRAHLGEEACKCLE [H20C], the protein stability index worked out at 2.94.
In the case of FGGNPRFLSLHRAHLGEEAAKCLE [H20A], the protein stability index was 1.24.
On to FGGNPRFLSLHRAHLGEEATKCLE [H20T], for which the protein stability index is 1.55.
Take FGGNPRFLSLHRAHLGEEAQKCLE [H20Q]: the protein stability index is 1.04.
Under FGGNPRFLSLHRAHLGEEAMKCLE [H20M] stands 2.13.
Under FGGNPRFLSLHRAHLGEEAWKCLE [H20W] stands 2.24; under FGGNPRFLSLHRAHLGEEARKCLE [H20R], 1.66.
On to FGGNPRFLSLHRAHLGEEAEKCLE [H20E], for which the protein stability index is 2.13.
As for FGGNPRFLSLHRAHLGEEAVKCLE [H20V], the protein stability index was 1.43.
Take FGGNPRFLSLHRAHLGEEALKCLE [H20L]: the protein stability index came to 1.61.
Under FGGNPRFLSLHRAHLEEEAHKCLE [G16E] stands 2.51.
As to FGGNPRFLSLHRAHLMEEAHKCLE [G16M], the protein stability index came to 2.19.
FGGNPRFLSLHRAHLLEEAHKCLE [G16L]: the protein stability index was determined as 2.55.
For the variant FGGNPRFLSLHRAHLIEEAHKCLE [G16I], the protein stability index was 2.06.
For FGGNPRFLSLHRAHLTEEAHKCLE [G16T], the protein stability index came out at 1.94.
FGGNPRFLSLHRAHLCEEAHKCLE [G16C]: the protein stability index came out at 1.83.
Regarding FGGNPRFLSLHRAHLFEEAHKCLE [G16F], the protein stability index was found to be 1.9.
For the variant FGGNPRFLSLHRAHLPEEAHKCLE [G16P], the protein stability index is 2.12.
With FGGNPRFLSLHRAHLDEEAHKCLE [G16D], the protein stability index is 1.63.
Consider FGGNPRFLSLHRAHLHEEAHKCLE [G16H], for which the protein stability index amounted to 1.7.
For the variant FGGNPRFLSLHRAHLSEEAHKCLE [G16S], the protein stability index stood at 2.06.
Under FGGNPRFLSLHRAHLKEEAHKCLE [G16K] stands 1.62; under FGGNPRFLSLHRAHLNEEAHKCLE [G16N], 1.92.
For the variant FGGNPRFLSLHRAHLREEAHKCLE [G16R], the protein stability index came to 1.64.
Consider FGGNPRFLSLHRAHLWEEAHKCLE [G16W], for which the protein stability index worked out at 1.87.
Under FGGNPRFLSLHRAHLAEEAHKCLE [G16A] stands 2.1; under FGGNPRFLSLHRAHLVEEAHKCLE [G16V], 2.42.
As for FGGNPRFLSLHRAHLQEEAHKCLE [G16Q], the protein stability index turned out to be 2.76.
